Source: US20210261641A1 (Novo Nordisk, published 2021)

Tests used:
[1] = biological target: T1, human GLP-1 receptor (human, UniProt P43220 24-463); assay: cell-based or functional assay
[2] = biological target: T1, human GLP-1 receptor; assay: displacement of [125I]-GLP-1(7-36)NH2 from BHK membranes with human GLP-1R, SPA, low HSA
Procedure: 1. For the receptor binding assay in the presence of low HSA (0.001%) 50 μl of the assay buffer was added to each well of an assay plate. Assay continued with step 3. 2. For the receptor binding assay in the presence of high HSA (2.0%) 50 μl of the 8% albumin stock was added to each well of an assay plate. Assay continued with step 3. 3. Test compounds were serially diluted to give the following concentrations: 8×10⁻⁷ M, 8×10⁻⁸ M, 8×10⁻⁹ M, 8×10⁻¹° M, 8×10⁻¹¹ M, 8×10⁻¹² M and 8×10⁻¹³ M. Twenty-five μl were added to appropriate wells in the assay plate. 4. Cell membrane aliquots were thawed and diluted to their working concentration. Fifty μl were added to each well in the assay plate. 5. WGA SPA beads were suspended in assay buffer at 20 mg/ml. The suspension was diluted to 10 mg/ml in assay buffer just prior to addition to the assay plate. Fifty μl were added to each well in the assay plate. 6. The incubation was started by adding 25 μl of 480 pM solution of [¹²⁵I]-GLP-1]-(7-36) NH₂ to each well of the assay plate. A 25 μl aliquot was reserved for measuring total counts/well. 7. The assay plate was incubated for 2 h at 30° C. 8. The assay plate was centrifuged for 10 min. 9. The assay plate was read in a Packard TopCount NXT instrument.
The data from the TopCount instrument were transferred to GraphPad Prism software. The software averaged the values for the replicates and performed a non-linear regression. IC₅₀ values were calculated by the software and reported in nM.

[3] = biological target: T2, mouse transferrin receptor (mouse, UniProt Q62351 1-763); assay: inhibition of uptake of 5 nM Cy5-labelled anti TfR-Fab into MEF-1 cells (mouse TfR), high-content imaging
T2 construct: whole, on cells; also called TfR
Procedure: The day before each assay the cells were plated out at 5000 cells/well. 2. On the assay day the cells were washed with HBSS containing 0.1% (w/v) HSA. 3. Test compounds were serially diluted to give the following concentrations: 2×10⁻⁶ M, 2×10⁻⁷ M, 2×10⁻⁸ M, 2×10⁻⁹ M, 2×10⁻¹° M, 2×10⁻¹¹ M, 2×10⁻¹² M and 2×10⁻¹³ M. 100 μl of each was added to appropriate wells in the assay plate. 4. To each of the wells the fluorescently-labelled Fab fragment was added to a final concentration of 5 nM. 5. The plates were incubated at 37° C. for 15 min. After incubation the buffer was removed and the cells were washed with HBSS containing 0.1% (w/v) HSA. 6. Fifty μl of cold 4% PFA was added in a fume hood. […] The assay plate was read in a high-content imaging instrument (IN Cell 2200 instrument, GE).
The data from the IN Cell instrument was analysed using the software that was supplied with the instrument. […] The amount of fluorescence that was internalised was calculated by defining granules visible in the Cy5 channel of the instrument and corresponded to internalised Cy5-labelled Fab fragment. The number and intensity of granules in each cell were calculated. The readout from the instrument that was used for further calculations was the total area of the granules divided by the number of cells in each acquisition field. […] IC50 values were calculated by the software and reported in nM.

T2 sequence (Q62351 whole entry): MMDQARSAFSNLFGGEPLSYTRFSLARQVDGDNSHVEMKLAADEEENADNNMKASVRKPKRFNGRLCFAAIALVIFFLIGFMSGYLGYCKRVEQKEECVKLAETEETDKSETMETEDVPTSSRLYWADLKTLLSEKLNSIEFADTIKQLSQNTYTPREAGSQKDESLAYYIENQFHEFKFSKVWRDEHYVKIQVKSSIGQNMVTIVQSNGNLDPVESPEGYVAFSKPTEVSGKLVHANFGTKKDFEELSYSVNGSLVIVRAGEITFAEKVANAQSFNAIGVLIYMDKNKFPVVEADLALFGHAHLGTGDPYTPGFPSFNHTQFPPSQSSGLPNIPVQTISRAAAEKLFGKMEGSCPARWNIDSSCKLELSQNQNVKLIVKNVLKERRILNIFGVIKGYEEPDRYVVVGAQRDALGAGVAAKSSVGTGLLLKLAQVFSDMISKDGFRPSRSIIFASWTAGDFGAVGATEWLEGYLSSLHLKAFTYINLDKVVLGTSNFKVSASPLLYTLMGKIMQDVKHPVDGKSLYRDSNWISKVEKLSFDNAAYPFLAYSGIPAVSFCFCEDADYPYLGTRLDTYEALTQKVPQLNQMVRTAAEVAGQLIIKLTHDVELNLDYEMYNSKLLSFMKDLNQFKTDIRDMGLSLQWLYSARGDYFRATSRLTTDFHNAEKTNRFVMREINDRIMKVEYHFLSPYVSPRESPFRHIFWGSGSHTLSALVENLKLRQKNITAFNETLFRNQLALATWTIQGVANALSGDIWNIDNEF

Binder	EC50/pM (0% HSA), in vitro potency, CRE luciferase reporter gene assay [1] [pM]	IC50 [2] [nM]	IC50 [3] [nM]
GLP-1 anti TNP-Fab fusion protein (compound of Example 5 / FIG. 5, SEQ ID NO: 8) (other, N-terminal residue found as pyroglutamic acid in the purified protein, Two-chain Fab fusion; also called GLP-1-(GGGS)4-aTNP light chain + aTNP-(His)10 heavy chain) light: HGEGTFTSDVSSYLEEQAAREFIAWLVKGRPGGGSGGGSGGGSGGGSDIVMTQTPLSLSVTPGQPASISCRSSQSLLHSNGNTYLHWYLQKPGQSPQLLIYKVSNRFSGVPDRFSGSGSGTDFTLKISRVEAEDVGVYYCSQSTHVPWTFGQGTKVEIKRTVAAPSVFIFPPSDEQLKSGTASVVCLLNNFYPREAKVQWKVDNALQSGNSQESVTEQDSKDSTYSLSSTLTLSKADYEKHKVYACEVTHQGLSSPVTKSFNRGEC heavy: QVQLQESGPGLVKPSETLSLTCTVSGGSISSGYWNWIRQPPGKGLEWIGTISYSGDTYYNPSLKSRVTISVDTSKNQFSLKLSSVTAADTAVYYCARYGSYVFDYWGQGTTVTVSSASTKGPSVFPLAPCSRSTSESTAALGCLVKDYFPEPVTVSWNSGALTSGVHTFPAVLQSSGLYSLSSVVTVPSSSLGTKTYTCNVDHKPSNTKVDKRVESKHHHHHHHHHH	267	12.5	
Vivotag 750 labelled GLP-1 control Fab fusion protein (compound of Example 9 / FIG. 9) (other, VivoTag750 (NHS ester) randomly attached to amines; mixture of 0, 1, 2, 3 labels per molecule (average about 1), The label positions are not defined; also called fluorescence labelled GLP-1 control Fab fusion protein) light: HGEGTFTSDVSSYLEEQAAREFIAWLVKGRPGGGSGGGSGGGSGGGSDIVMTQTPLSLSVTPGQPASISCRSSQSLLHSNGNTYLHWYLQKPGQSPQLLIYKVSNRFSGVPDRFSGSGSGTDFTLKISRVEAEDVGVYYCSQSTHVPWTFGQGTKVEIKRTVAAPSVFIFPPSDEQLKSGTASVVCLLNNFYPREAKVQWKVDNALQSGNSQESVTEQDSKDSTYSLSSTLTLSKADYEKHKVYACEVTHQGLSSPVTKSFNRGEC heavy: EVQLVESGGGLVQPGNSLTLSCVASGFTFSNYGMHWIRQAPKKGLEWIAMIYYDSSKMNYADTVKGRFTISRDNSKNTLYLEMNSLRSEDTAMYYCAVPTSHYVVDVWGQGVSVTVSSAKTTPPSVYPLAPGSAAQTNSMVTLGCLVKGYFPEPVTVTWNSGSLSSGVHTFPAVLQSDLYTLSSSVTVPSSTWPSETVTCNVAHPASSTKVDKKIVPRDCGHHHHHHHHHH	58.6	3.89	
GLP-1 control Fab fusion protein (compound of Example 7 / FIG. 7, SEQ ID NO: 12) (other, Hybrid of the anti-TNP light chain fusion and the anti-TfR heavy chain; also called hybrid construct) light: HGEGTFTSDVSSYLEEQAAREFIAWLVKGRPGGGSGGGSGGGSGGGSDIVMTQTPLSLSVTPGQPASISCRSSQSLLHSNGNTYLHWYLQKPGQSPQLLIYKVSNRFSGVPDRFSGSGSGTDFTLKISRVEAEDVGVYYCSQSTHVPWTFGQGTKVEIKRTVAAPSVFIFPPSDEQLKSGTASVVCLLNNFYPREAKVQWKVDNALQSGNSQESVTEQDSKDSTYSLSSTLTLSKADYEKHKVYACEVTHQGLSSPVTKSFNRGEC heavy: EVQLVESGGGLVQPGNSLTLSCVASGFTFSNYGMHWIRQAPKKGLEWIAMIYYDSSKMNYADTVKGRFTISRDNSKNTLYLEMNSLRSEDTAMYYCAVPTSHYVVDVWGQGVSVTVSSAKTTPPSVYPLAPGSAAQTNSMVTLGCLVKGYFPEPVTVTWNSGSLSSGVHTFPAVLQSDLYTLSSSVTVPSSTWPSETVTCNVAHPASSTKVDKKIVPRDCGHHHHHHHHHH	52.4	2.39	
GLP-1 anti TfR-Fab fusion protein (compound of Example 6 / FIG. 6, SEQ ID NO: 11) (other, Two-chain Fab fusion; also called GLP-1-(GGGS)4-aTfR light chain + aTfR-(His)10 heavy chain) light: HGEGTFTSDVSSYLEEQAAREFIAWLVKGRPGGGSGGGSGGGSGGGSDIQMTQSPASLSASLEEIVTITCQASQDIGNWLAWYQQKPGKSPQLLIYGATSLADGVPSRFSGSRSGTQFSLKISRVQVEDIGIYYCLQAYNTPWTFGGGTKLELKRADAAPTVSIFPPSSEQLTSGGASVVCFLNNFYPKDINVKWKIDGSERQNGVLNSWTDQDSKDSTYSMSSTLTLTKDEYERHNSYTCEATHKTSTSPIVKSFNRNEC heavy: EVQLVESGGGLVQPGNSLTLSCVASGFTFSNYGMHWIRQAPKKGLEWIAMIYYDSSKMNYADTVKGRFTISRDNSKNTLYLEMNSLRSEDTAMYYCAVPTSHYVVDVWGQGVSVTVSSAKTTPPSVYPLAPGSAAQTNSMVTLGCLVKGYFPEPVTVTWNSGSLSSGVHTFPAVLQSDLYTLSSSVTVPSSTWPSETVTCNVAHPASSTKVDKKIVPRDCGHHHHHHHHHH	48.3	3.28	
Vivotag 750 labelled GLP-1 anti TfR-Fab fusion protein (compound of Example 8 / FIG. 8) (other, VivoTag750 (NHS ester) randomly attached to amines; mixture of 0, 1, 2, 3 labels per molecule (average about 1), The label positions are not defined; also called GLP-1-Active TfR; fluorescence labelled GLP-1 anti TfR-Fab fusion protein) light: HGEGTFTSDVSSYLEEQAAREFIAWLVKGRPGGGSGGGSGGGSGGGSDIQMTQSPASLSASLEEIVTITCQASQDIGNWLAWYQQKPGKSPQLLIYGATSLADGVPSRFSGSRSGTQFSLKISRVQVEDIGIYYCLQAYNTPWTFGGGTKLELKRADAAPTVSIFPPSSEQLTSGGASVVCFLNNFYPKDINVKWKIDGSERQNGVLNSWTDQDSKDSTYSMSSTLTLTKDEYERHNSYTCEATHKTSTSPIVKSFNRNEC heavy: EVQLVESGGGLVQPGNSLTLSCVASGFTFSNYGMHWIRQAPKKGLEWIAMIYYDSSKMNYADTVKGRFTISRDNSKNTLYLEMNSLRSEDTAMYYCAVPTSHYVVDVWGQGVSVTVSSAKTTPPSVYPLAPGSAAQTNSMVTLGCLVKGYFPEPVTVTWNSGSLSSGVHTFPAVLQSDLYTLSSSVTVPSSTWPSETVTCNVAHPASSTKVDKKIVPRDCGHHHHHHHHHH	92.8	9.61	
GLP-1 control Fab conjugate (compound of Example 14 / FIG. 14) (other, epsilon amino group of Lys at position 36 (GLP-1(7-37) numbering) carries the linker -Ado-gGlu-Ado-, joined via -CH2-C(O)- to Cys 382 of the Fab; thiol of Cys 382 (numbering of FIG. 14 / SEQ ID NO: 5) linked via Chem. 2 -CH2-C(O)-Ado-gGlu-Ado- to the GLP-1 analogue) light: DIVMTQTPLSLSVTPGQPASISCRSSQSLLHSNGNTYLHWYLQKPGQSPQLLIYKVSNRFSGVPDRFSGSGSGTDFTLKISRVEAEDVGVYYCSQSTHVPWTFGQGTKVEIKRTVAAPSVFIFPPSDEQLKSGTASVVCLLNNFYPREAKVQWKVDNALQSGNSQESVTEQDSKDSTYSLSSTLTLSKADYEKHKVYACEVTHQGLSSPVTKSFNRGEC heavy: EVQLVESGGGLVQPGNSLTLSCVASGFTFSNYGMHWIRQAPKKGLEWIAMIYYDSSKMNYADTVKGRFTISRDNSKNTLYLEMNSLRSEDTAMYYCAVPTSHYVVDVWGQGVSVTVSSASTKGPSVFPLAPCSRSTSESTAALGCLVKDYFPEPVTVSWNSGCLTSGVHTFPAVLQSSGLYSLSSVVTVPSSSLGTKTYTCNVDHKPSNTKVDKRVESK peptide: HGEGTFTSDVSSYLEEQAAREFIAWLVRGKG	818	55.9	
GLP-1 anti TfR-Fab conjugate (compound of Example 15 / FIG. 15) (other, epsilon amino group of Lys at position 36 (GLP-1(7-37) numbering) carries the linker -Ado-gGlu-Ado-, joined via -CH2-C(O)- to Cys 377 of the Fab; thiol of Cys 377 (numbering of FIG. 15 / SEQ ID NO: 3) linked via Chem. 2 -CH2-C(O)-Ado-gGlu-Ado- to the GLP-1 analogue) light: DIQMTQSPASLSASLEEIVTITCQASQDIGNWLAWYQQKPGKSPQLLIYGATSLADGVPSRFSGSRSGTQFSLKISRVQVEDIGIYYCLQAYNTPWTFGGGTKLELKRTVAAPSVFIFPPSDEQLKSGTASVVCLLNNFYPREAKVQWKVDNALQSGNSQESVTEQDSKDSTYSLSSTLTLSKADYEKHKVYACEVTHQGLSSPVTKSFNRGEC heavy: EVQLVESGGGLVQPGNSLTLSCVASGFTFSNYGMHWIRQAPKKGLEWIAMIYYDSSKMNYADTVKGRFTISRDNSKNTLYLEMNSLRSEDTAMYYCAVPTSHYVVDVWGQGVSVTVSSASTKGPSVFPLAPCSRSTSESTAALGCLVKDYFPEPVTVSWNSGCLTSGVHTFPAVLQSSGLYSLSSVVTVPSSSLGTKTYTCNVDHKPSNTKVDKRVESK peptide: HGEGTFTSDVSSYLEEQAAREFIAWLVRGKG	435	32.5	17.4
